Positions count from the first letter of the chain named.

Assay [1] addresses T1, CD20 (UniProt P11836 1-297, limits assumed).
T1 construct: whole, on cells; also called CD20 on CD20+ Ramos cells; antigen
T1 sequence (looked up): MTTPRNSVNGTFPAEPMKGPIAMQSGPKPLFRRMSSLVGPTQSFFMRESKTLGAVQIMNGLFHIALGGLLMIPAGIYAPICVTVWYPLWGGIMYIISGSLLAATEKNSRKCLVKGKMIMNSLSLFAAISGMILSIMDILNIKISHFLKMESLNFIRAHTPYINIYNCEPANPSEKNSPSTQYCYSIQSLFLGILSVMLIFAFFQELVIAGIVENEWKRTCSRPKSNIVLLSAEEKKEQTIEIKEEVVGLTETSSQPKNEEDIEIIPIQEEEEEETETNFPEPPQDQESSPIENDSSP
Nature of the assay: FACS on CD20+ Ramos cells (FIG. 12 legend). As for the experimental part: (§1) The specific binding to CD20 was detected by using CD20+ Ramos cell (ATCC) and T lymphocyte leukemia Jurkat cell (ATCC). Cells were incubated with various concentration of antibodies for 1 hour at 4° C. After washing with PBS for 3 times, 1:100 diluted FITC labeled anti-human Fc γ specific second antibody (The Jakson Laboratory) was added and incubated for 1 h at 4° C. After washing with PBS for three times, specific binding was analyzed by FACS instrument.

For assay [2], the target named is T1, CD20. The experiment in a line: FACS on CD20+ Ramos cells, FITC anti-human Fc gamma second antibody. As for the experimental part: as §1

B1: humanized anti-CD20 antibody 1635 (antibody, human IgG1, V domains shown)
VH: QVQLVQSGAEVKKPGASVKVSCKASGYTFTSYNMHWVRQAPGKGLEWIGAIYPGNGDTSYNQKFKGRVTITADKSTSTAYMELSSLRSEDTAVYYCARSTYYGGDWYFNVWGQGTTVTVSS
VL: DVVMTQSPAFLSVTPGEKVTITCRASSSVSYIHWFQQKPGKAPKPLIYATSNLASGVPSRFSGSGSGTDFTLTINSLEAEDAATYYCQQWTSNPPTFGGGTKVEIK
For the molecule B1, in the assay with CD20 [1], the binding result is given as “binds”.

B2: humanized anti-CD20 antibody 3637 (antibody, human IgG1, V domains shown)
VH: B1 VH with N33T, G56S, S59N, Y107N, N109E
VL: B1 VL with N93K
notes: CDR-optimized variant (hVH-2 / hVK-2)
With B2, the binding result with CD20 [1] is reported as “binds”.

B3: humanized anti-CD20 antibody 1535 (antibody, human IgG1, V domains shown)
VH: B1 VH with A40P, K74E
VL: B1 VL
As for B3, the binding result with CD20 [2] is given as “binds”.

B4: humanized anti-CD20 antibody 1634 (antibody, human IgG1, V domains shown)
VH: B1 VH
VL: B1 VL with P45S
With B4, the binding result with CD20 [2] is “binds”.

B5: humanized anti-CD20 antibody 1534 (antibody, human IgG1, V domains shown)
VH: B1 VH with A40P, K74E
VL: B1 VL with P45S
As to B5, in the assay with CD20 [2], the binding result was “binds”.
